Holding throughout (type): biochemical
The target of assay [1] is T1, insulin receptor tyrosine kinase (IRK) (Homo sapiens, UniProt P06213).
T1 construct: the 48 kDa cytoplasmic domain of the β-subunit of IRK; purchased Biomol International (Plymouth, Pa.)
Description: BVR phosphorylation by the insulin receptor tyrosine kinase (IRK), in vitro [32P]-ATP assay. The following applies: for decrease of BVR phosphorylation by IRK caused by point mutation / BVR phosphorylation by IRK (tyrosine mutants, in words): mutant vs wtBVR, IRK 2 h at 30° C. As for the experimental part: BVR phosphoiylation by the insulin receptor tyrosine kinase (IRK): Phosphorylation of BVR by IRK was examined using GST-HBVR fusion protein and the 48 kDa cytoplasmic domain of the β-subunit of IRK. BVR (5 μg) was incubated in 50 μl of IRK kinase buffer containing 50 mM HEPES (pH 8.0), 20 mM MgCl2, 1 mM DTT in the presence of 0.05 μg IRK and 10 μM ATP labeled with 10 μCi [γ-^32P]-ATP. The reaction was started with the addition of labeled ATP and incubated for 2-4 h. Reactions were terminated by addition of Laemmli sample buffer and boiled for 3 min. Samples were subjected to 8% SDS-PAGE and transferred to PVDF membranes for autoradiography.

Assay [2] addresses T2, human BVR (Homo sapiens, UniProt P53004, A154S/E160D/G155D).
T2 construct: made in house
T2 sequence (P53004 1-296 A154S/G155D/E160D): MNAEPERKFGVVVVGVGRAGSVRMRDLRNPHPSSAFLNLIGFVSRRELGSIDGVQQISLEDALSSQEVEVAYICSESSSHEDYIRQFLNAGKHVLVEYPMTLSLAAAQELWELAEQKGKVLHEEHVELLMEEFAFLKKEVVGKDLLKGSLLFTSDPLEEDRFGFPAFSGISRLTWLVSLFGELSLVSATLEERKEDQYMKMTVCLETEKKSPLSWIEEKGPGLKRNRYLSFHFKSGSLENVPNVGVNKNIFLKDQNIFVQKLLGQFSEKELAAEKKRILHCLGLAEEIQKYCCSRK
Description: BVR kinase activity on substrates (IRS-1, IRS-1 peptides, Raytide, poly glu/tyr). The note with it: peptide as substrate of BVR, [γ-32P]-ATP. As for the experimental part:
(§1) BVR autophosphorylation and kinase activity: To detect autophosphorylation of BVR, GST-hBVR of wild type (wt) and mutant variants were incubated in 50 mM HEPES buffer (pH 8.4) in the presence of 30 mM MnCl2 and 1 mM DTT for 2 h at 30° C. The reaction was started with the addition of 10 μM ATP labeled with 10 μCi [γ-^32P]-ATP and was stopped with the addition of Laemmli sample buffer. Samples were boiled for 3 min and applied to a 8% SDS-PAGE gels, transferred to a PVDF membrane, and then visualized by autoradiography. To measure kinase activity, GST-BVR (5 μg) was incubated in 50 μl kinase buffer containing 50 mM HEPES buffer (pH 8.4), 20 mM MgCl2, 30 mM MnCl2, 1 mM DTT and 10 μM ATP labeled with 10 μCi [γ-^32P]-ATP in the presence of 5 μg substrates: IRS-1 or Raytide or poly glu/tyr (4:1) for 2 h at 30° C. The reaction was started with the addition of ATP and terminated by adding 120 μl 10% H3PO4. 100 μl aliquots were directly transferred to P81 Whatman filters which were subsequently washed extensively in 0.75% phosphoric acid at room temperature. Finally, the filters were submerged in acetone for 5 min, dried, and retained counts were measured using a Beckman LS 6500 liquid scintillation counter (Beckman Coulter, Fullerton, Calif.).

Assay [3] has as its target T2, human BVR. The experiment in a line: BVR autophosphorylation. The note with it: pH 8.4; 20 mM Zn acetate, also with Mn+2. The procedure: as §1
In assay [4] the test system is human BVR. The experiment in a line: BVR kinase activity on substrates (IRS-1, IRS-1 peptides, Raytide, poly glu/tyr). The following applies: protein tested as kinase for IRS; Mn+2 and Mg+2 present. As for the experimental part:
as §1

Assay [5] deals with human BVR. The experiment in a line: BVR autophosphorylation. The following applies: pH 8.4, 30 mM MnCl2, 2 h, 30° C. As for the experimental part: as §1

Changes are numbered by the printed parent chain.

T1 sequence (P06213 980-1382 limits assumed): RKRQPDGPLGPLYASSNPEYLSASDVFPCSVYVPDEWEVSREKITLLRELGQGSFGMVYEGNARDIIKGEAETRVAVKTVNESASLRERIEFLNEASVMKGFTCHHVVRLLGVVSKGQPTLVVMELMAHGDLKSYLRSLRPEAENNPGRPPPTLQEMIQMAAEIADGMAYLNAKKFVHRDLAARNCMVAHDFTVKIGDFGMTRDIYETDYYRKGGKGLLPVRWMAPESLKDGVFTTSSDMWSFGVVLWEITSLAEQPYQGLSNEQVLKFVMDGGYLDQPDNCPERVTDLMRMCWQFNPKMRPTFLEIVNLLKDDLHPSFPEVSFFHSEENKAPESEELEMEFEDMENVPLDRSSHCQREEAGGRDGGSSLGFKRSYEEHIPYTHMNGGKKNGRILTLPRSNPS

For the molecule `O=c1c(-c2ccc(O)cc2)coc2cc(O)cc(O)c12` [Genestein, reference compound], the “effect on BVR phosphorylation mediated by IRK” value in assay [1] (genestein 200 μM, HEPES pH 8.0, 20 mM MgCl2) is “significantly inhibited BVR phosphorylation mediated by IRK”.

Consider “Lys-Lys-His-Ala-Asp-Asp-Gly-Ala-Met-Pro-Met-Ser^312-Pro-Gly-Val-Ala (KKHADDGAMPMSPGVA; mutant peptide fragment of Homo sapiens Insulin Receptor Substrate (Peptide 1)) [mutant IRS-1 peptide (#1), reference compound]”, for which, in the assay with human BVR [2], the “phosphorylation of IRS-1 peptide by BVR” value came out at 1049±78 cpm.

As to “Arg-Thr-Glu-Ser^307-Ile-Thr-Ala-Thr-Ser^312-Pro-Ala-Ser^315-Met-Val-Gly-Gly-Lys-Pro (RTESITATSPASMVGGKP; peptide fragment of Homo sapiens Insulin Receptor Substrate (Peptide 2)) [IRS-1 peptide (#2), reference compound]”, the “phosphorylation of IRS-1 peptide by BVR” value in the assay with human BVR [2] is reported as 1198±230 cpm.

Turning to `CC(=O)[O-].CC(=O)[O-].[Zn+2]` [Zn^+2, Zn acetate, reference compound], the “effect of metal ion on BVR autophosphorylation” value at human BVR [3] is on record as “inhibitory to BVR autophosphorylation”.

As to `O=C(O)CN(CCN(CC(=O)O)CC(=O)O)CC(=O)O` [EDTA, reference compound], the “effect on phosphorylation of BVR by IRK” value in assay [1] (50 mM EDTA (pH 8.0), 30° C., 2 h, anti-phosphotyrosine blot) was “abolished phosphorylation of BVR by IRK”.

B1: HO-2: heme oxygenase isozyme, used as a control for kinase activity (protein, UniProt P30519 2-316, looked up)
Heme oxygenase 2: SAEVETSEGVDESEKKNSGALEKENQMRMADLSELLKEGTKEAHDRAENTQFVKDFLKGNIKKELFKLATTALYFTYSALEEEMERNKDHPAFAPLYFPMELHRKEALTKDMEYFFGENWEEQVQCPKAAQKYVERIHYIGQNEPELLVAHAYTRYMGDLSGGQVLKKVAQRALKLPSTGEGTQFYLFENVDNAQQFKQLYRARMNALDLNMKTKERIVEEANKAFEYNMQIFNELDQAGSTLARETLEDGFPVHDGKGDMRKCPFYAAEQDKGALEGSSCPFRTAMAVLRKPSLQFILAAGVALAAGLLAWYYM
On to B1, for which the IRS phosphorylation result with human BVR [4] is given as “did not significantly effect IRS phosphorylation”.

B2: Y^228: human BVR point mutant, NRYLS to NRFLS (protein, UniProt P53004 3-296, looked up, variant Y228F)
Biliverdin reductase A: AEPERKFGVVVVGVGRAGSVRMRDLRNPHPSSAFLNLIGFVSRRELGSIDGVQQISLEDALSSQEVEVAYICSESSSHEDYIRQFLNAGKHVLVEYPMTLSLAAAQELWELAEQKGKVLHEEHVELLMEEFAFLKKEVVGKDLLKGSLLFTAGPLEEERFGFPAFSGISRLTWLVSLFGELSLVSATLEERKEDQYMKMTVCLETEKKSPLSWIEEKGPGLKRNRFLSFHFKSGSLENVPNVGVNKNIFLKDQNIFVQKLLGQFSEKELAAEKKRILHCLGLAEEIQKYCCSRK
In the case of B2, the “autophosphorylation of BVR mutants” value in the assay with human BVR [5] was “did not result in significant changes in autophosphorylation of BVR”. Moreover, in assay [1], the “decrease of BVR phosphorylation by IRK caused by point mutation” value came to 40%.

B3: Y^291: human BVR point mutant, QKYCC to QKFCC (protein, UniProt P53004 3-296, looked up, variant Y291F)
Biliverdin reductase A: B2 Biliverdin reductase A with F226Y, Y289F
Take B3: the “autophosphorylation of BVR mutants” value in the assay on human BVR [5] was “did not result in significant changes in autophosphorylation of BVR”. Also, the “decrease of BVR phosphorylation by IRK caused by point mutation” value in assay [1] came to 49%.

B4: G^17: human BVR point mutant in ATP binding domain, GVGRA to GVARA (protein, UniProt P53004 3-296, looked up, variant G17A)
Biliverdin reductase A: B2 Biliverdin reductase A with G15A, F226Y
Regarding B4, the IRS phosphorylation result with human BVR [4] is “for the most part, prevented IRS phosphorylation by BVR”.

B5: Y^198 plus Y^228: human BVR double mutant, DQFMK and NRFLS (protein, UniProt P53004 3-296, looked up, variant Y198F Y228F)
Biliverdin reductase A: B2 Biliverdin reductase A with Y196F
Turning to B5, in assay [1], the “BVR phosphorylation by IRK (tyrosine mutants, in words)” value was “little or no phosphorylation was detected”.

B6: T^202: human BVR point mutant, KMTVC to KMAVC (protein, UniProt P53004 3-296, looked up, variant T202A)
Biliverdin reductase A: B2 Biliverdin reductase A with T200A, F226Y
B6: the “autophosphorylation of BVR mutants” value with human BVR [5] is on record as “found to be a target of autophosphorylation”.

B7: Y^198 plus Y^291: human BVR double mutant, DQFMK and QKFCC (protein, UniProt P53004 3-296, looked up, variant Y198F Y291F)
Biliverdin reductase A: B2 Biliverdin reductase A with Y196F, F226Y, Y289F
On to B7, for which, in assay [1], the “BVR phosphorylation by IRK (tyrosine mutants, in words)” value is on record as “little or no phosphorylation was detected”.

B8: HO-1: heme oxygenase isozyme, used as a control for kinase activity (protein, UniProt P09601 1-288, looked up)
Heme oxygenase 1: MERPQPDSMPQDLSEALKEATKEVHTQAENAEFMRNFQKGQVTRDGFKLVMASLYHIYVALEEEIERNKESPVFAPVYFPEELHRKAALEQDLAFWYGPRWQEVIPYTPAMQRYVKRLHEVGRTEPELLVAHAYTRYLGDLSGGQVLKKIAQKALDLPSSGEGLAFFTFPNIASATKFKQLYRSRMNSLEMTPAVRQRVIEEAKTAFLLNIQLFEELQELLTHDTKDQSPSRAPGLRQRASNKVQDSAPVETPRGKPPLNTRSQAPLLRWVLTLSFLVATVAVGLYAM
For B8, the IRS phosphorylation result in the assay with human BVR [4] was “did not significantly effect IRS phosphorylation”.

The values above are taken from US8455427B2, “Methods of modifying insulin signaling using biliverdin reductase” (University of Rochester, priority 2005, dated 2013).
